The values that follow come from the Immune Epitope Database (IEDB).

The target in the experiment is HLA-A*02:01. Kind of experiment: IEDB peptide-MHC binding, purified MHC/direct/fluorescence; filed as Kd, often an IC50 or EC50 that approximates it; ≥ and ≤ were set here for values at or beyond the usual limits of such assays. The conditions noted are these: source organism: Human immunodeficiency virus 1.
What is called Kd is the equilibrium constant for the complex coming apart. Sequence SLFNAVVTL registered an equilibrium dissociation constant (Kd) of 10 nM. Next, SLYNLVAVL: 724 nM. Next, SLYNAVVTL: 10 nM. The result for SLYNAVATL reads 45 nM; that for SLFNTVATV, 25 nM.

Turning to SLYNTIAIL, the Kd stood at 500 nM. Next, SLYNTISVL: 61 nM; SLYNTVVTL: 20 nM; SLFNTVVTL: 32 nM. In the case of SLYNTVSTL, the Kd came to 181 nM.

Sequence SLYNTITVL displayed a Kd of 88 nM.

SVYNTVATL had a Kd of 283 nM.
